Two molecules from publication PMC11496930 (2024) can be followed below.

Where two headings read alike, the source gives them in different places.

Assay [1] has as its target T1, ADI-19425 Fab (human, UniProt P0DOY2 1-106). The assay can be described thus: BLI. Background: BLI is a label-free optical method that tracks binding on a fibre tip over time.
The target of assay [2] is T1, ADI-19425 Fab. The assay can be described thus: BLI. The source holds these as a separate data set.

B1: 1D3 recombinant IgG (human constant regions) (antibody, V domains shown)
VH: QVQIQQSGAELMRPGASVKLSCKATGYTFTGYWIEWVKQRPGHGLEWIGEILSGRGTTNYNEKFKGKATFTADTYSNTAYMQLSSLTTGDSAIYYCARGGFLYGDGPFDYWGQGTTLTVSS
VL: DILLTQSPAILSVSPGERVSFSCRASQNIDTHIHWYQQRTNGSPRLLIKYASESISGIPSRFSGSGSGTDFTLTINSVESEDIADYYCQQSNSWPFTFGSGTKLEIK
A word on the koff: it is a measure of how fast the partners let go of each other. For B1, in assay [1], the koff is 0.000115 s⁻¹.

B2: 2C1 recombinant IgG (human constant regions) (antibody, V domains shown)
VH: QVQLQQSGAELVRPGASVTLSCKASGYIFTDYEIHWLKQTPVHGLEWIGTSDPETGGFAYTQKFKGKAILTADKSSSTAYMELRSLTSEDSAVYYCTRRPYYGSGAWFAYWGQGTLVTVSA
VL: DIVMTQSHKFMSTSVGDRVSITCKANHDVNIAVAWYQQKPGQSPKLLIYSASYRYTGVPDRFTGSGSGTDFTFTISSVQAEDLAVYYCQQHYDTPRTFGGGTKLEIK
For the molecule B2, in assay [2], the off-rate constant (koff) was 0.000442 s⁻¹.
